Three molecules from PMC11040006, “Molecular basis of an atypical dsDNA 5mC/6mA bifunctional dioxygenase CcTet from Coprinopsis cinerea in catalyzing dsDNA 5mC demethylation” (Nucleic Acids Research, 2024) can be followed below.

Data set [1] deals with T1, CcTet-ΔN16 (CcTet-Δ16; CcTet) (Coprinopsis cinerea, UniProt A8P1J0).
T1 construct: gene CC1G_05589; N-terminal 16 residues deleted; His-SUMO1 tag removed by Ulp1; expressed in E. coli BL21(DE3) from pET-SUMO
T1 sequence (A8P1J0 17-430): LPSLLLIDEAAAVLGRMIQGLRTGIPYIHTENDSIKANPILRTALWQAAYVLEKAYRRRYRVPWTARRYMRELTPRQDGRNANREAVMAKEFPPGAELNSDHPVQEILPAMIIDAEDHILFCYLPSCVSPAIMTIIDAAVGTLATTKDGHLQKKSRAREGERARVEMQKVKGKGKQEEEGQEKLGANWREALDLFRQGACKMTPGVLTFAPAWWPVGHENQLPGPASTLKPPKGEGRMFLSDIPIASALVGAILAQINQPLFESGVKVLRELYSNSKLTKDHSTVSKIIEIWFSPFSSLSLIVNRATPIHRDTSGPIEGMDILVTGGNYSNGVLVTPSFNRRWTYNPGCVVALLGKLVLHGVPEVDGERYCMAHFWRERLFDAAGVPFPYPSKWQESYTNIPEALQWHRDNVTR
Briefly: X-ray crystallography, […] Å. The following applies: complex with Mn2+ and 12-bp 5mC-dsDNA; 2 mM NOG in the crystallization mix; 2-oxoglutarate site. The format is binding.

Another data set deals with T2, CcTet-ΔN16 (Coprinopsis cinerea, UniProt A8P1J0 17-430).
T2 sequence: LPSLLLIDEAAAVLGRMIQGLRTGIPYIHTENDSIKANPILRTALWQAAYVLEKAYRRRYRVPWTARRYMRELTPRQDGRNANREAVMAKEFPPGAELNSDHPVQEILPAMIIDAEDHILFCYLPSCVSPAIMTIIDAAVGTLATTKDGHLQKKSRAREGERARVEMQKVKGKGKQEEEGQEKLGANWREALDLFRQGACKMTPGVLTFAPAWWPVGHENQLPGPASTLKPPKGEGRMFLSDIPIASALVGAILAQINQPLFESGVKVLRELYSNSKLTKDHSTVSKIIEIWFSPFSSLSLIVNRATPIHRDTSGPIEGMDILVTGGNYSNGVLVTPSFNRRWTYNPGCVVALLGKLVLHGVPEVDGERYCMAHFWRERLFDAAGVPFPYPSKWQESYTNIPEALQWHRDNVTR
Briefly: X-ray crystallography (2.3 Å); Mn2+, N-oxalylglycine (NOG); MST: NT-495 labeled protein, room temperature, 5 min incubation, buffer not stated (protein gel-filtration buffer 20 mM HEPES pH 7.0, 100 mM NaCl, 1 mM DTT). Crystals: 2 mM NOG, 1 mM MnCl2, protein:DNA 1:1.2, 20 mM sodium formate, 10% PEG8000, 277 K. The following applies: protein: recombinant; tags: N-terminal His-Sumo1, removed by Ulp1; blunt; as printed, T of strand 2 (position 7) lies opposite 5mC6 (mismatch).

The target of another data set is T3, CcTet-ΔN16 R96A (Coprinopsis cinerea, UniProt A8P1J0 17-430, R96A).
T3 sequence: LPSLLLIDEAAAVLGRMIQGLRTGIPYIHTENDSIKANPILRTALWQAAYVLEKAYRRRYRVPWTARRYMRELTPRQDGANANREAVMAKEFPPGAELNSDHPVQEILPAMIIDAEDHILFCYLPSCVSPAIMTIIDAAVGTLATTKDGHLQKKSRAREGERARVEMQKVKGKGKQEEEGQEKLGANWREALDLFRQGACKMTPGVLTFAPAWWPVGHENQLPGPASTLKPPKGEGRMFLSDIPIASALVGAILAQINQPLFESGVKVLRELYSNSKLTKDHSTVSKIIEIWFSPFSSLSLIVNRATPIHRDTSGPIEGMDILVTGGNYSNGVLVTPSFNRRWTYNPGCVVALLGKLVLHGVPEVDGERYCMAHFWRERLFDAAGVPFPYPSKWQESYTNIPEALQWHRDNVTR
As to the kind of experiment: MST; MST: NT-495 labeled protein, room temperature, 5 min incubation, buffer not stated (protein gel-filtration buffer 20 mM HEPES pH 7.0, 100 mM NaCl, 1 mM DTT). Crystals: 2 mM NOG, 1 mM MnCl2, protein:DNA 1:1.2, 20 mM sodium formate, 10% PEG8000, 277 K. The following applies: protein: recombinant; tags: N-terminal His-Sumo1, removed by Ulp1; blunt.

Another data set addresses T4, CcTet-ΔN16 H234A (Coprinopsis cinerea, UniProt A8P1J0 17-430, H234A).
T4 sequence: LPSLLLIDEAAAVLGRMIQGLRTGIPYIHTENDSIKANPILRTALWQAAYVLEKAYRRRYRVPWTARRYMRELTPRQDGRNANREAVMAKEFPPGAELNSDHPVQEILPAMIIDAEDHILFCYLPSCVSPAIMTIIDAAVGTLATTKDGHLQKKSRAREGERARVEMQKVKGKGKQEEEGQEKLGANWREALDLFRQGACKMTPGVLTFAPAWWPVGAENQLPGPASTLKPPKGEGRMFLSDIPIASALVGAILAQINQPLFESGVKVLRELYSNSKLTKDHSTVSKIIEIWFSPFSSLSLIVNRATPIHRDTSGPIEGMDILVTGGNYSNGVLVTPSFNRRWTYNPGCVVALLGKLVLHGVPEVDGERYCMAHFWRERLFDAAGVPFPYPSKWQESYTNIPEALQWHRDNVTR
The description is as above. The following applies: protein: recombinant; tags: N-terminal His-Sumo1, removed by Ulp1; blunt.

The target of a further data set is T5, CcTet-ΔN16 R92A (Coprinopsis cinerea, UniProt A8P1J0 17-430, R92A).
T5 sequence: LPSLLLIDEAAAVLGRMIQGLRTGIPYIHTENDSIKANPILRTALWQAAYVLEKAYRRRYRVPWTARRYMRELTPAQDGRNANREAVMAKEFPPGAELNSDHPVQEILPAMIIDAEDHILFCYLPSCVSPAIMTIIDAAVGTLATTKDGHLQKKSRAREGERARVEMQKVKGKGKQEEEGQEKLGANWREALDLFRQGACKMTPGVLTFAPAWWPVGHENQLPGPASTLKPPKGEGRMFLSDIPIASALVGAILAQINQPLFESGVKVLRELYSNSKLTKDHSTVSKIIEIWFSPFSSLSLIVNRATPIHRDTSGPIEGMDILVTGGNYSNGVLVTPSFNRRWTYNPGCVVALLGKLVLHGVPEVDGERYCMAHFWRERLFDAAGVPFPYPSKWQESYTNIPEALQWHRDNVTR
The description is as above. The following applies: protein: recombinant; tags: N-terminal His-Sumo1, removed by Ulp1; blunt.

Consider `O=C(O)CNC(=O)C(=O)O` [N-oxalylglycine], for which, in data set [1], the “X-ray crystallography, 2.3 Å” value was “NOG was stabilized through hydrophilic and hydrophobic interactions with several nearby residues”.

B1: 12-bp 5mC-dsDNA (dsDNA)
DNA 1: CGATCCGCTACG
DNA 2: CGTAGCTGATCG
modifications: 5mC at position 6 of strand 1
Consider B1, for which the binding result with CcTet-ΔN16 is “binds”.

B2: 19-bp 5mC-dsDNA (dsDNA)
DNA 1: TCTGGAACGGAATTCTTCA
DNA 2: TGAAGAATTCCGTTCCAGA
modifications: 5mC at position 8 of strand 1
Regarding B2, the binding result with CcTet-ΔN16 R96A, with CcTet-ΔN16 H234A and with CcTet-ΔN16 R92A was “no binding” in each case.
